{"source": "paper PMC4383067", "target": "Full-length human acetylcholinesterase (dimeric, recombinant) (human) (UniProt P22303)", "assay": "SEC-MALS", "data": [{"substance": "Full-length human acetylcholinesterase (dimeric, recombinant) (from UniProt P22303 32-614) (enzyme)", "values": [{"measurement": "stoichiometry N", "result": 2}]}]}
